We go through 125 sequences from the supplement of paper PMC9112550, “Optimization of the antimicrobial peptide Bac7 by deep mutational scanning” (BMC Biology, 2022).

The data set relates to Escherichia coli TOP10. Description: shrunken log2 fold change of peptide-encoding DNA abundance (4.5 h post-induction vs induction); higher = less antimicrobial activity (less host growth inhibition). The note with it: time post-induction: 4.5 h; library: site-saturation at positions 5, 18, 19, 20.
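Further: peptides expressed intracellularly from a pBAD plasmid library in pooled LB shake-flask culture, induced with 0.3% L-arabinose, DNA abundance read by NGS, three biological replicates, DESeq2 with apeglm shrinkage.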

As for RRIRFRPPRLPRPRPRPKPTPRP, the “shrunken log2 fold change” value amounted to 0.879. To RRIRPRPPRLPRPRPRPMGPPRP belongs -0.248; to RRIRFRPPRLPRPRPRPWVYPRP, -0.327; to RRIRRRPPRLPRPRPRPFIKPRP, -0.368. Turning to RRIRLRPPRLPRPRPRPDPGPRP, the “shrunken log2 fold change” value was -0.146. The same measure for RRIRIRPPRLPRPRPRPIFKPRP: -0.226. The same measure for RRIRRRPPRLPRPRPRPCKNPRP: 0.0778; for RRIRKRPPRLPRPRPRPYTSPRP: -0.05; for RRIRDRPPRLPRPRPRPGGVPRP: 0.434. To RRIRNRPPRLPRPRPRPNSVPRP belongs -0.0503. As to RRIRERPPRLPRPRPRPYLCPRP, the “shrunken log2 fold change” value is -0.554. The same measure for RRIRHRPPRLPRPRPRPVHEPRP: -0.0609; for RRIRDRPPRLPRPRPRPFMYPRP: -0.212; for RRIRDRPPRLPRPRPRPWLNPRP: -0.277. The same measure for RRIRERPPRLPRPRPRPALDPRP: -0.0626; for RRIRYRPPRLPRPRPRPDHSPRP: -0.889; for RRIRTRPPRLPRPRPRPLNYPRP: -0.415. The same measure for RRIRPRPPRLPRPRPRPKLFPRP: 0.18; for RRIRKRPPRLPRPRPRPCGYPRP: 0.25. Take RRIRFRPPRLPRPRPRPAHRPRP: the “shrunken log2 fold change” value was 0.418. To RRIRKRPPRLPRPRPRPKHFPRP belongs 0.024; to RRIRDRPPRLPRPRPRPPEMPRP, 0.78; to RRIRHRPPRLPRPRPRPGAHPRP, -0.457. The same measure for RRIRHRPPRLPRPRPRPDCVPRP: -0.383; for RRIRERPPRLPRPRPRPNNRPRP: -0.315. Consider RRIRERPPRLPRPRPRPELFPRP, for which the “shrunken log2 fold change” value is 0.201. The same measure for RRIRIRPPRLPRPRPRPQLCPRP: -0.222; for RRIRRRPPRLPRPRPRPFWKPRP: 0.111. To RRIRIRPPRLPRPRPRPVMNPRP belongs -0.61; to RRIRKRPPRLPRPRPRPVKMPRP, 0.0491; to RRIRKRPPRLPRPRPRPVSYPRP, -0.227.

As for RRIRARPPRLPRPRPRPATEPRP, the “shrunken log2 fold change” value is 0.795. To RRIRTRPPRLPRPRPRPTSVPRP belongs 0.0486; to RRIRCRPPRLPRPRPRPKQTPRP, -0.0521; to RRIRPRPPRLPRPRPRPAMRPRP, 0.973. The same measure for RRIRQRPPRLPRPRPRPKPVPRP: 0.407. To RRIRRRPPRLPRPRPRPNYLPRP belongs 0.305.

For the sequence RRIRDRPPRLPRPRPRPGLFPRP, the “shrunken log2 fold change” value was 0.949. To RRIRMRPPRLPRPRPRPIKRPRP belongs 0.0532; to RRIRQRPPRLPRPRPRPALEPRP, 0.275. The same measure for RRIRFRPPRLPRPRPRPPEHPRP: 0.682; for RRIRGRPPRLPRPRPRPQPGPRP: 0.606; for RRIRSRPPRLPRPRPRPVVCPRP: -0.0186. Regarding RRIRTRPPRLPRPRPRPTLWPRP, the “shrunken log2 fold change” value worked out at 0.475. To RRIRLRPPRLPRPRPRPMCVPRP belongs -0.231; to RRIRTRPPRLPRPRPRPQNCPRP, -0.373; to RRIRERPPRLPRPRPRPCPAPRP, -0.224. The same measure for RRIRCRPPRLPRPRPRPGMPPRP: -0.257. The same measure for RRIRMRPPRLPRPRPRPEADPRP: 0.136; for RRIRDRPPRLPRPRPRPGRPPRP: 0.136; for RRIRPRPPRLPRPRPRPKKHPRP: -0.0812.

Consider RRIRIRPPRLPRPRPRPERTPRP, for which the “shrunken log2 fold change” value was 0.0643. RRIRFRPPRLPRPRPRPAYMPRP: the “shrunken log2 fold change” value is -0.564.

For RRIRQRPPRLPRPRPRPFPEPRP, the “shrunken log2 fold change” value was -0.0157. As to RRIRIRPPRLPRPRPRPRVDPRP, the “shrunken log2 fold change” value was 0.061. To RRIRFRPPRLPRPRPRPTNKPRP belongs -0.301. Turning to RRIRCRPPRLPRPRPRPNCKPRP, the “shrunken log2 fold change” value is -0.138. The same measure for RRIRMRPPRLPRPRPRPNDIPRP: -0.0213; for RRIRLRPPRLPRPRPRPDSYPRP: 0.00388; for RRIRYRPPRLPRPRPRPQSQPRP: -0.133. As for RRIRDRPPRLPRPRPRPEDLPRP, the “shrunken log2 fold change” value was found to be 0.902. The same measure for RRIRNRPPRLPRPRPRPFFMPRP: 0.0606; for RRIRGRPPRLPRPRPRPFDLPRP: -0.24; for RRIRQRPPRLPRPRPRPQANPRP: -0.165. The same measure for RRIRGRPPRLPRPRPRPKDIPRP: -0.0187; for RRIRSRPPRLPRPRPRPCPAPRP: -0.271. For RRIRIRPPRLPRPRPRPRLNPRP, the “shrunken log2 fold change” value is -0.247. The same measure for RRIRGRPPRLPRPRPRPHPWPRP: 0.345.

Consider RRIRIRPPRLPRPRPRPDWAPRP, for which the “shrunken log2 fold change” value is -0.0489. To RRIRDRPPRLPRPRPRPQLDPRP belongs 0.207; to RRIRCRPPRLPRPRPRPGLTPRP, 0.108; to RRIRARPPRLPRPRPRPTVRPRP, 0.302. Regarding RRIRNRPPRLPRPRPRPIRLPRP, the “shrunken log2 fold change” value is -0.0969. To RRIRPRPPRLPRPRPRPKFCPRP belongs 0.189; to RRIRERPPRLPRPRPRPAHDPRP, -0.181; to RRIRTRPPRLPRPRPRPWLEPRP, 0.218. The same measure for RRIRIRPPRLPRPRPRPDVYPRP: -0.571; for RRIRGRPPRLPRPRPRPKFAPRP: 0.684; for RRIRVRPPRLPRPRPRPGAYPRP: -0.0376. The same measure for RRIRSRPPRLPRPRPRPYFHPRP: -0.853; for RRIRKRPPRLPRPRPRPGWCPRP: 0.639; for RRIRPRPPRLPRPRPRPNEQPRP: 0.062. Turning to RRIRTRPPRLPRPRPRPYRHPRP, the “shrunken log2 fold change” value is -0.0901. To RRIRWRPPRLPRPRPRPEYEPRP belongs -0.0434; to RRIRNRPPRLPRPRPRPSGLPRP, 0.0284; to RRIRARPPRLPRPRPRPSIFPRP, -0.101.

Turning to RRIRTRPPRLPRPRPRPSKPPRP, the “shrunken log2 fold change” value is -0.487. RRIRCRPPRLPRPRPRPPRIPRP: the “shrunken log2 fold change” value was 0.48. To RRIRRRPPRLPRPRPRPRTEPRP belongs 0.432. The same measure for RRIRSRPPRLPRPRPRPVWEPRP: 0.118. To RRIRFRPPRLPRPRPRPQLYPRP belongs -0.588; to RRIRMRPPRLPRPRPRPNDVPRP, -0.00114; to RRIRTRPPRLPRPRPRPGEDPRP, 0.109. RRIRDRPPRLPRPRPRPVCDPRP: the “shrunken log2 fold change” value was found to be 0.696. To RRIRMRPPRLPRPRPRPELAPRP belongs 3.6; to RRIRQRPPRLPRPRPRPAERPRP, 0.179; to RRIRKRPPRLPRPRPRPTYGPRP, 0.043.

RRIRFRPPRLPRPRPRPPEMPRP: the “shrunken log2 fold change” value was 0.0471. To RRIRNRPPRLPRPRPRPDAPPRP belongs 0.185; to RRIRLRPPRLPRPRPRPYNMPRP, -0.859; to RRIRPRPPRLPRPRPRPNYGPRP, 0.111. The same measure for RRIRRRPPRLPRPRPRPELTPRP: -0.0257; for RRIRMRPPRLPRPRPRPKPIPRP: 0.32; for RRIRTRPPRLPRPRPRPLHVPRP: -0.175. The same measure for RRIRKRPPRLPRPRPRPNLYPRP: -0.111.

Take RRIRLRPPRLPRPRPRPDPVPRP: the “shrunken log2 fold change” value was -0.0275. For the sequence RRIRQRPPRLPRPRPRPHPLPRP, the “shrunken log2 fold change” value was -0.0478. To RRIRQRPPRLPRPRPRPWVIPRP belongs -0.134; to RRIRERPPRLPRPRPRPSWRPRP, -0.0751. To RRIRTRPPRLPRPRPRPGEWPRP belongs 0.0179.

In the case of RRIRARPPRLPRPRPRPFRSPRP, the “shrunken log2 fold change” value was -0.0968.

Consider RRIRIRPPRLPRPRPRPTKPPRP, for which the “shrunken log2 fold change” value was -0.0472. The same measure for RRIRLRPPRLPRPRPRPFGCPRP: -0.138. To RRIRFRPPRLPRPRPRPCHAPRP belongs -0.193. As to RRIRTRPPRLPRPRPRPYCEPRP, the “shrunken log2 fold change” value is -0.416.

For the sequence RRIRIRPPRLPRPRPRPIIVPRP, the “shrunken log2 fold change” value is -0.666. The same measure for RRIRTRPPRLPRPRPRPFSFPRP: -0.341; for RRIRWRPPRLPRPRPRPLIMPRP: -0.0185. To RRIRNRPPRLPRPRPRPIIDPRP belongs -0.361.

Consider RRIRYRPPRLPRPRPRPVLHPRP, for which the “shrunken log2 fold change” value was -0.5. As to RRIRLRPPRLPRPRPRPQKEPRP, the “shrunken log2 fold change” value stood at 0.0466. To RRIRNRPPRLPRPRPRPMHPPRP belongs -0.212. To RRIRGRPPRLPRPRPRPCTPPRP belongs 0.337; to RRIRDRPPRLPRPRPRPMDQPRP, 0.326; to RRIRPRPPRLPRPRPRPRYTPRP, -0.266.
